Measured values: patent US20040022780A1, “Serine protease and topical retinoid compositions useful for treatment of acne vulgarise and production of anti-aging effects” (priority 1997, published 2004)

Tests used:
Rhino mouse skin [1] = assay: Delivery of fluorescently labeled trypsin into hair follicles (fluorescent microscopy); assay type: in vivo
Description: About 100 μL of the topically active trypsin composition of Example 2 was applied to the dorsal side of each Rhino mouse of Example 1. The trypsin used in this composition was fluorescently-labeled with a protein fluorescent labeling kit available from Molecular Probes, Inc. in accordance with its accompanying protocol (1996). At one and four hours after the application of the fluorescent trypsin treatment, a 1 cm by 2 cm sample of the skin surface of each mouse was isolated from each mouse with scissors, fixed with a 10% buffered formalin solution having a pH of about 6.9-7.1 at 25° C. available from Stephens Scientific, then formed into a paraffin block according to well-known procedures, and examined with fluorescent microscopy according to well-known methods.
This Example was repeated on similar Rhino mice of Example 1, with the exception that these mice were treated daily for 5 days with the 1% (w/v) trypsin composition of Example 2 prior to the fluorescent trypsin treatment. Four hours after the application of the fluorescent trypsin treatment on the fifth day, the skins of these mice were analyzed using similar fluorescent microscopic methods. […] This loss of barrier integrity is reflected in the values for transepidermal water loss (“TEWL”) as described in Example 4 and Table 1 herein.

Elastin mRNA = assay: RT-PCR gene expression in skin, elastin; assay type: in vivo, Rhino mouse; details: increasing concentrations of trypsin (0.0001-0.01% (w/v)) daily for five days
Description: Rhino mice of Example 1 were treated daily with trypsin compositions (0% (w/v), 0.0001% (w/v), 0.001% (w/v), and 0.01% (w/v)), as prepared in Example 2, for five days and sacrificed at day eight. The skins of vehicle treated mice and trypsin-treated mice were obtained as described in Example 3, then their total RNAs were extracted using “RNA Stat-60” reagent available from Tel-Test “B,” Inc. as described in Chomczymski, “Single Step Method of RNA Isolation By Acid Guanidinium Thiocyanate-phenol-chloroform extraction,” 162 Anal. Biochem. 156-59 (1987) which is incorporated herein by reference in its entirety. A sufficient amount of RNase-free DNase available from Promega, Corp. under the tradename “RQ1 RNase-free DNase” was then added to the extracted RNA from each mouse such that each respective product contained 200 ng of DNased-RNA using the procedure set forth in “RNase-free DNase” protocol published by Promega, Corp. (May, 1995). […]
The PCR products were then analyzed on 2% agarose/ethidium bromide gels according to methods well-known in the art in order to compare the level of expression of certain genes in skins of trypsin-treated and untreated mice. […]

[2] = system: follicular epithelium of Rhino mouse skin; assay: TUNEL stain of skin for apoptotic bodies; assay type: in vivo; details: 0.1% (w/v) trypsin daily for five days, sacrificed at day eight
Description: Rhino mice of Example 1 were treated daily with a 0.1% (w/v) trypsin composition of Example 2 for five days and sacrificed at day eight.
1 cm by 2 cm samples of the skins of untreated, vehicle treated, and trypsin treated mice were obtained via the procedure set forth in Example 3 then analyzed using a TdT-mediated dUTP-biotin nick end labeling (“TUNEL”) stain procedure as disclosed in Gavrieli et al., “Identification of Programmed Cell Death in situ Via Specific Labeling of Nuclear DNA Fragmentation”, 119 Jl. Cell Biology 493-501 (1992) (“Gavrieli”). During this procedure, the prepared skin sections were stained using an “ApopTag™ Plus In Situ Apoptosis Detection Kit” available from Oncor, Inc. as specified in the “ApopTag™ Plus In Situ Apoptosis Detection Kit” protocol by Oncor, Inc. (Feb. 1995), which is based upon the labeling of fragmented DNA ends as described in Gavrieli. FIGS. 5(a-d) show a histological analysis wherein the stain has a peroxidase end point (brown) and a methyl green counter-stain. The resulting representations of this are provided in FIGS. 5(a&b) which are vehicle treated and FIGS. 5(c&d) which are trypsin treated.

Rhino mouse skin [3] = assay: Cutometer analysis of skin elasticity, Rhino mouse; assay type: in vivo
Description: To quantitate this effect, a cutometer analysis was performed. We used a cutometer available from Acaderm (Menlo Park, Calif.), and employed the methods described in Couturaud et al., “Skin Biomechanical Properties: In Vivo Evaluation of Influence of Age and Body Site by a Non-Invasive Method,” 1 Skin Res. and Technol. 68-73 (1995) and Elsner et al., “Mechanical Properties of Human Forearm and Vulvar Skin,” 122 Br. J. Dermatol. 607-614 (1990) which are both incorporated herein by reference in their entirety. Suction was applied through a 2 mm aperture and the corresponding skin displacement and recovery after release of the negative pressure were measured. In human studies, an improvement in the ratios of deformation parameters Ua/Uf (skin fatigue, or total recovery from the load), Ur/Uf (biological elasticity, or elastic recovery after loading), and Ur/Ue (firmness, or improvement in the deformation resistance of the skin) indicates better tonicity and elasticity of the skin. The deformation parameters Ue, Uf, Ua, and Ur are dependent, in part, on skin thickness. Consequently, ratios were used for evaluation as described in Barel et al., “Suction Method for Measurement of Skin Mechanical Properties: The Cutometer,” Handbook of Non-Invasive Methods and the Skin 335-340 (1995) which is incorporated herein by reference in its entirety.

B1: trypsin (protein, UniProt P00760 24-246, looked up)
Serine protease 1: IVGGYTCGANTVPYQVSLNSGYHFCGGSLINSQWVVSAAHCYKSGIQVRLGEDNINVVEGNEQFISASKSIVHPSYNSNTLNNDIMLIKLKSAASLNSRVASISLPTSCASAGTQCLISGWGNTKSSGTSYPDVLKCLKAPILSDSSCKSAYPGQITSNMFCAGYLEGGKDSCQGDSGGPVVCSGKLQGIVSWGSGCAQKNKPGVYTKVCNYVSWIKQTIASN
notes: lyophilyzed trypsin from Sigma-Aldrich, a serine protease, in Hepes buffer mixed with GDL liposomes
location of fluorescent labeling in skin (Rhino mouse skin [1]; 1 hour and 4 hours after topical application of about 100 μL fluorescent trypsin composition): almost all of the fluorescent labeling was found within the utriculi and sebaceous glands
change in delivery route into utriculi and sebaceous glands (Rhino mouse skin [1]; 4 hours after fluorescent trypsin, following 5 days of daily 1% (w/v) trypsin): no major change
barrier integrity (staining at outer portion of stratum corneum) (Rhino mouse skin [1]; following 5 days of daily 1% (w/v) trypsin): some loss of barrier integrity
Elastin mRNA (Elastin mRNA): increased
apoptotic bodies within the follicular epithelium (TUNEL) [2]: elimination of all the apoptotic bodies
Ua/Uf (skin fatigue, total recovery from the load) (Rhino mouse skin [3]; Day 7, trypsin treated): 0.593 ± 0.09
Ur/Ue (firmness) (Rhino mouse skin [3]; Day 7, trypsin treated): 0.557 ± 0.21
Ur/Uf (biological elasticity) (Rhino mouse skin [3]; Day 7, trypsin treated): 0.359 ± 0.22
Ua/Uf (skin fatigue, total recovery from the load) (Rhino mouse skin [3]; Day 12, trypsin treated): 0.663 ± 0.10
Ur/Ue (firmness) (Rhino mouse skin [3]; Day 12, trypsin treated): 0.666 ± 0.24
Ur/Uf (biological elasticity) (Rhino mouse skin [3]; Day 12, trypsin treated): 0.548 ± 0.11
Ua/Uf (skin fatigue, total recovery from the load) (Rhino mouse skin [3]; Day 16, trypsin treated): 0.675 ± 0.03
Ur/Ue (firmness) (Rhino mouse skin [3]; Day 16, trypsin treated): 0.733 ± 0.18
Ur/Uf (biological elasticity) (Rhino mouse skin [3]; Day 16, trypsin treated): 0.404 ± 0.08
